Results reported in publication PMC10643698.
Values joined by “and” are separate entries in the source; they are usually repeats but may differ in a detail not shown here. Equal entries are not always repeated. Where two headings read alike, the source gives them in different places.

Columns and labels:
[1] = molecular target: MtaLon-M217A (Meiothermus taiwanensis); assay: cryo-EM structure; MtaLon-M217A 1 μM (as hexamer) with 10 μM casein and 5 mM ADP, 3 h
[2] = molecular target: MtaLon-Y224S (Meiothermus taiwanensis); assay: cryo-EM structure; MtaLon-Y224S 1 μM (as hexamer) incubated with 5 mM ATPγS overnight
[3] = molecular target: MtaLon-Y224S (Meiothermus taiwanensis); assay: cryo-EM structure; 10 μM ΔN-E613K and 5 mM ADP incubated with 1 μM MtaLon-Y224S at 4 °C for 1 h, mixture purified on Superose 6 Increase; 5+1 heteromeric complex
[4] = molecular target: MtaLon-Y397A/S678A (Meiothermus taiwanensis); assay: cryo-EM structure; MtaLon-Y397A/S678A 1 μM (as hexamer) with 10 μM casein and 5 mM ATPγS, 3 h
[5] = molecular target: Meiothermus taiwanensis LonA, wild type, full length (Meiothermus taiwanensis); assay: cryo-EM structure; wild-type MtaLon 1 μM (as hexamer) without any nucleotide (MtaLon-Apo)
[6] = molecular target: Meiothermus taiwanensis LonA, wild type, full length (Meiothermus taiwanensis); assay: as above; remark: listed apart in the source
[7] = molecular target: Meiothermus taiwanensis LonA, wild type, full length (Meiothermus taiwanensis); assay: cryo-EM structure; wild-type MtaLon 1 μM (as hexamer) incubated with 5 mM ADP overnight; single-particle reconstruction without symmetry
[8] = molecular target: Meiothermus taiwanensis LonA, wild type, full length (Meiothermus taiwanensis); assay: as above; remark: listed apart in the source
[9] = molecular target: fluorescein isothiocyanate (FITC)-labeled casein (UniProt P02662); assay: fluorescence polarisation; MtaLon samples serially diluted (5 µM to 0.01 µM) mixed with 1.25 µM FITC-casein, 1 mM ADP, 4 °C, 3 h; triplicates
[10] = molecular target: MtaLon-S678A (Meiothermus taiwanensis); assay: cryo-EM structure; MtaLon-S678A 1 μM (as hexamer) with 10 μM casein and 5 mM ADP, overnight
[11] = molecular target: MtaLon-S678A (Meiothermus taiwanensis); assay: as above; remark: listed apart in the source

UniProt P02662, sequence (P02662 16-214): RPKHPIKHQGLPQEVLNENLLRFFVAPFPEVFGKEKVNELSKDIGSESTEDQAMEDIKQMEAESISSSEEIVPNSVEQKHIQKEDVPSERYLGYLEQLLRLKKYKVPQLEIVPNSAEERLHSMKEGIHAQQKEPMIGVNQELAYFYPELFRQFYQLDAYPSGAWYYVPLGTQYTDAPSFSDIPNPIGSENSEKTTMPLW

MtaLon-M217A (enzyme)
stoichiometry N [1]: 5 and 6

MtaLon-Y224S (enzyme)
stoichiometry N [2]: 5 and 6 | stoichiometry N [3]: 5 and 6

MtaLon-Y397A/S678A (enzyme)
stoichiometry N [4]: 5 and 6

Meiothermus taiwanensis LonA, wild type, full length (enzyme)
stoichiometry N [5]: 5 and 6 | stoichiometry N [6]: 3 and 4 | stoichiometry N [7]: 5 and 6 | stoichiometry N [8]: 3 and 4

MtaLon-S678A (enzyme)
Kd [9]: 1380 nM | stoichiometry N [10]: 5 | stoichiometry N [11]: 6
